Data taken from paper PMC2741138 (Journal of molecular biology, 2008).
Values joined by “and” are separate entries in the source; they are usually repeats but may differ in a detail not shown here. Equal entries are not always repeated.

B1: (RS)16 (peptide)
chain: RSRSRSRSRSRSRSRSRSRSRSRSRSRSRSRS
modifications: Expanded from the printed formula (RS)16; any flanking residues or end caps are not stated
B2: ASF(RRM1) (domain or fragment)
chain: MSGGGVIRGPAGNNDCRIYVGNLPPDIRTKDIEDVFYKYGAIRDIDLKNRRGGPPFAFVEFEDPRDAEDAVYGRDGYDYDGYRLRVEFPRS
B3: ASF(RRM2) (domain or fragment)
chain: NRVVVSGLPPSGSWQDLKDHMREAGDVCYADVYRDGTGVVEFVRKEDMTYAVRKLDNTKFRSHEGETAYIRVKVDGPRSPSYG
B4: (RS)8 (peptide)
chain: RSRSRSRSRSRSRSRS
modifications: Expanded from the printed formula (RS)8; any flanking residues or end caps are not stated
B5: ASF(RS12)-His (domain or fragment)
chain: PRSPSYGRSRSRSRSRSRSRSRSNSRSRSYSPRRSRGSPRYSPRHSRSRSRT
B6: ASF(ΔRRM1)-His (domain or fragment)
chain: GGAPRGRYGPPSRRSENRVVVSGLPPSGSWQDLKDHMREAGDVCYADVYRDGTGVVEFVRKEDMTYAVRKLDNTKFRSHEGETAYIRVKVDGPRSPSYGRSRSRSRSRSRSRSRSNSRSRSYSPRRSRGSPRYSPRHSRSRSRT
B7: ASF(ΔRRM12)-His (domain or fragment)
chain: GPRSPSYGRSRSRSRSRSRSRSRSNSRSRSYSPRRSRGSPRYSPRHSRSRSRT

What follows are molecules tested against SRPK1 (UniProt Q96SB4) (assay: kinase competition assay).
SRPK1 (UniProt Q96SB4), sequence (Q96SB4 whole entry): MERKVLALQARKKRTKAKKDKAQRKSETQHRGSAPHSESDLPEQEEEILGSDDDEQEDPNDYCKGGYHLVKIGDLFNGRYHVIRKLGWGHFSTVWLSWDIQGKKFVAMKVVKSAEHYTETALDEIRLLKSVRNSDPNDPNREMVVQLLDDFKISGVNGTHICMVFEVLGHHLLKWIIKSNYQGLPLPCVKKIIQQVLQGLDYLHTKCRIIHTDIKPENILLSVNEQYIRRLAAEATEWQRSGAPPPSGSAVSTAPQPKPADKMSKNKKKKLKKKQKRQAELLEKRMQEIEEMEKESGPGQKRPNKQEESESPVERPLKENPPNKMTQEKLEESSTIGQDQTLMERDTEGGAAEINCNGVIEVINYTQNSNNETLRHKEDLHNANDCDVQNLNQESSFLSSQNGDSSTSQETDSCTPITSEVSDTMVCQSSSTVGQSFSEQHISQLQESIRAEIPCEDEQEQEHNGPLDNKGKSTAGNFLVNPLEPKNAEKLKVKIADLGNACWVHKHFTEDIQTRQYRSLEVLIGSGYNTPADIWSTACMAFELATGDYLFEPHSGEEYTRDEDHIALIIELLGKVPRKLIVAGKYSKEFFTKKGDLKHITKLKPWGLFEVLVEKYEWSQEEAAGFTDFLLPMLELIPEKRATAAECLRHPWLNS

| Ki | Molecule |
| --- | --- |
| 180 nM | ASF(ΔRS) (domain or fragment) |
| 170 nM | ASF(ΔRS2) (domain or fragment) |
| 40 nM | Block 1/2 (from UniProt Q07955 1-248) (natural protein) |
| 120 nM | Block 3/4 (from UniProt Q07955 1-248) (natural protein) |
| 45 nM | Block 2/3 (from UniProt Q07955 1-248) (natural protein) |

What follows are molecules tested against T1, SRPK1 (UniProt Q96SB4 1-655) (assay: kinase competition assay).
T1 sequence (Q96SB4 whole entry): as above

| Ki | Molecule |
| --- | --- |
| 160 ± 41 nM | B1 |
| 1600 ± 400 nM | B2 |
| 6300 ± 1900 nM | B3 |
| 1800 nM and 1600 nM | B4 |

Molecular target: T1, SRPK1
Experiment: kinase competition assay
Remark: another data set of the same source

| Ki | Molecule |
| --- | --- |
| 190 ± 13 nM | B5 |
| 54 ± 5 nM | B6 |
| 70 ± 15 nM | B7 |
